In patent publication US20230310634A1, “ANTI-HUMAN VISTA ANTIBODIES AND USE THEREOF” (IMMUNEXT, INC., priority 2020, published 2023):

What was measured:
[1] = molecular target: T1, human VISTA on cells (human) (UniProt Q9H7M9); test: flow cytometry with quantification beads, Tregs in human whole blood, n=3 donors
T1 sequence: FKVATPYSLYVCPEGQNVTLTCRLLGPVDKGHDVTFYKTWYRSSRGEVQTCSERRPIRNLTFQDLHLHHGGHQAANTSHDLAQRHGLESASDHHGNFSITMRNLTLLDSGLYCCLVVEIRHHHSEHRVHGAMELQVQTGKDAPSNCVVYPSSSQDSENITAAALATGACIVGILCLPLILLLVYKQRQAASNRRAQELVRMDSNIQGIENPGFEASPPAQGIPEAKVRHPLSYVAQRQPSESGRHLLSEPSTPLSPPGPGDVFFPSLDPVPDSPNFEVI

[2] = molecular target: T1, human VISTA on cells (human); test: flow cytometry with quantification beads, CD14+ monocytes of human PBMC, n=5 donors
[3] = molecular target: T1, human VISTA on cells (human); test: flow cytometry with quantification beads, CD4+ T cells in human whole blood, n=3 donors
[4] = molecular target: T1, human VISTA on cells (human); test: flow cytometry with quantification beads, CD8+ T cells in human whole blood, n=3 donors
[5] = molecular target: T1, human VISTA on cells (human); test: flow cytometry with quantification beads, CD8+ T cells of human PBMC, n=5 donors
[6] = molecular target: T1, human VISTA on cells (human); test: flow cytometry with quantification beads, CD14+ monocytes in human whole blood, n=3 donors
[7] = molecular target: T1, human VISTA on cells (human); test: flow cytometry with quantification beads, CD66b+ neutrophils in human whole blood, n=3 donors
[8] = molecular target: T1, human VISTA on cells (human); test: flow cytometry with quantification beads, CD20+ B cells in human whole blood, n=3 donors
[9] = molecular target: T1, human VISTA on cells (human); test: flow cytometry with quantification beads, CD4+ T cells of human PBMC, n=5 donors
[10] = molecular target: T1, human VISTA on cells (human); test: flow cytometry with quantification beads, CD4+ CD25+ CD127low Tregs of human PBMC, n=5 donors

antibody binding capacity (ABC) [1]: 7490 molecules
antibody binding capacity (ABC) (ABC (molecules per cell)) [2]: 112000
antibody binding capacity (ABC) [3]: 8720 molecules
antibody binding capacity (ABC) [4]: 5010 molecules
antibody binding capacity (ABC) [5]: 9960 molecules
antibody binding capacity (ABC) (ABC (molecules per cell)) [6]: 224000
antibody binding capacity (ABC) (ABC (molecules per cell)) [7]: 68600
antibody binding capacity (ABC) (ABC (molecules per cell)) [8]: 1280
antibody binding capacity (ABC) [9]: 5940 molecules
antibody binding capacity (ABC) [10]: 6640 molecules
B1: Anti-VISTA GG8 (antibody, V domains shown)
VH: EVQLQQSGPELVKPGTSMKISCKASGYSFTGYTMNWVRQSHGKNLEWIGLINPYNGGINYNQKFKARATLTVDKSSSTAYMELLSLTSEDSAVYYCARRTLLRPYFFDYWGQGTTLTVSS
VL: DIVLTQSPASLAVSLGQRATISCRASQSVSTSTFSYMHWYQQKPGQPPKLLIKYASNLESGVPARFSGSGSGTDFTLNIHPVEEEDTATYYCQHSWEIPYTFGGGTKLEIK
modifications: Alexa Fluor 647 dye conjugated to the antibody (p-1554); attachment sites not given
